Substitutions are numbered along the chain they refer to.
T1: human GITR-Fc (R&D Systems cat no. 689-GR) (human, UniProt Q9Y5U5 26-161)
T1 construct: Bought protein; also called GITR (Glucocorticoid-induced TNFR-related); not shown: Fc tag
T1 sequence (looked up): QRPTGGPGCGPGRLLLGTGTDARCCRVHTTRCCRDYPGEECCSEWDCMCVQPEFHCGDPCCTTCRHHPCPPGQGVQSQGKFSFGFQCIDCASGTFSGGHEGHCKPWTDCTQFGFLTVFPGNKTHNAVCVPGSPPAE

T2: human OX40-Fc (R&D Systems cat no. 3388-OX) (human, UniProt P43489 29-216)
T2 construct: Bought protein; not shown: Fc tag
T2 sequence (looked up): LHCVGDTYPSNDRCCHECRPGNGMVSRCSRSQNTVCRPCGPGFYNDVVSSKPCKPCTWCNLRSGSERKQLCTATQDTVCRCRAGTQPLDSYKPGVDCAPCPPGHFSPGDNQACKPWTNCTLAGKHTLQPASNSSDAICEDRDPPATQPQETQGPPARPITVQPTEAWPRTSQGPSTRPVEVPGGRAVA

B1: Humabody VH 1.78 (VHH)
VH: QVQLVESGGGLVQPGGSLRLSCAATGFTLSNYWMNWVRQAPGKGLEWVANINQDGSERYYVDSVKGRFTISRDNAKNSLYLQMSSLRAEDTAVYFCARGGEGYGVDHYGLDVSGQGTTVTVSSHHHHHH
notes: human single VH domain
B2: Humabody VH 1.18 (VHH)
VH: EVQLVESGGGLVQPGGSLRLSCAASGFTFSTHWMNWARQAPGKELEWVANINQDGSEKYYVDSVEGRFTISRDNANNSLYLQMNSLRAEDTAVYYCARGGVGYGDSHFGMDVWGLGTTVTVSSHHHHHH
notes: human single VH domain
B3: Humabody VH 1.1 (VHH)
VH: EVQLVESGGGLVQPGGSLRLSCAASGFTFSSHWMTWFRQAPGKGLEWVAHIKEDGSEKYYEDSVEGRFTVSRDNAKNSVYLQMNSLRAEDTAVYYCARGGDGYSDSHFGVDVWGQGTTVTVSSHHHHHH
notes: human single VH domain; also called single domain antibody 1.1
B4: Humabody VH 1.11 (VHH)
VH: EVQLVESGGGLVQPGGSLRLSCEASGFTFSDYWMNWARQAPGKGLEWVANIKEDGSEKYYVDSVEGRFTISRDNAKNSTYLQMNSLRAEDTAVYYCARGGAGYSMSHYGMDVWGQGTTVTVSSHHHHHH
notes: human single VH domain
B5: Humabody VH 1.52 (VHH)
VH: EVQLVESGGGLVQIGGSLRLSCAASGFTFSKYWMIWVRQAPEKGLEWVANINQDGSEKYYVDSVEGRFTISRDNANNSLFLQMNSLRAEDTAVYYCARGGDDYSISHFGMDVSGQGTRVTVSSHHHHHH
notes: human single VH domain
B6: Humabody VH 2.1 (VHH)
VH: EVQLVESGGGLVKPGGSLRVSCAASGFTFSDYYMSWFRQAPGKGLEWVSYISGSGDIIDYADSVKGRFTISRDNAKNSLYLQMNNLRAEDTAVYHCAREDSRLTGTTDFDNWGQGTLVTVSSHHHHHH
notes: human single VH domain
B7: Humabody VH 2.8 (VHH)
VH: B6 VH with V20L, T28A, Y50H, D56T, I57T, N85S, L103M, T104P
notes: human single VH domain
B8: Humabody VH 2.14 (VHH)
VH: EVQLVESGGGLVKPGGSLRLSCAASGFTFSDYYMTWFRQAPGKGLEWISYISGSGDTIDYAESVKGRFTISRDNAKNSLYLQMNSLRAEDTAVYYCAREDIRMPGTTDFDHWGQGTLVTVSSHHHHHH
notes: human single VH domain
B9: Humabody VH 2.9 (VHH)
VH: B8 VH with Y95H, I101S, M103I, P104A, H111N, Q114P
notes: human single VH domain

biological target: T1, human GITR-Fc (R&D Systems cat no. …); assay: ELISA, coated GITR-Fc
Procedure: (§1) Specificity of binding for CD137 over the tumour necrosis factor receptor family members OX40 and GITR (Glucocorticoid-induced TNFR-related) was determined using an ELISA assay. Nunc Maxisorp plates were coated with 1 ug/ml human CD137-Fc recombinant protein (Acro Biosystems 41B-H5258), human GITR-Fc (R&D Systems cat no. 689-GR) human OX40-Fc (R&D Systems cat no. 3388-OX) in sodium carbonate buffer overnight at 4° C. then washed twice with PBS. Non-specific protein interactions were blocked by incubation with 1% (w/v) skimmed milk powder (Marvel®) in PBS/0.1% Tween-20 for 1 hour at room temperature. Plates were washed twice with PBS then VH or antibody control (1 ug/ml) added for 1 hour at room temperature. Following three washes with PBS/0.1% Tween-20 a 1:1000 dilution of anti His-HRP (VH detection) or anti mouse-HRP (positive control mouse monoclonal antibody detection) was added in 1% Marvel/PBS/0.1% Tween-20. The detection antibodies were allowed to bind for 1 hour at room temperature then the plates were washed twice in PBS/0.1% Tween-20 and once in PBS. The ELISA was developed using TMB substrate and the reaction was stopped by the addition of 50 ul 0.5M H₂SO₄ solution. The absorbance at 450 nm was measured using the BMG Pherastar.

| binding result | Binder |
| --- | --- |
| no binding (tested: 1 ug/ml) | B1 |
| no binding (tested: 1 ug/ml) | B2 |
| no binding (tested: 1 ug/ml) | B3 |
| no binding (tested: 1 ug/ml) | B4 |
| no binding (tested: 1 ug/ml) | B5 |
| no binding (tested: 1 ug/ml) | B6 |
| no binding (tested: 1 ug/ml) | B7 |
| no binding (tested: 1 ug/ml) | B8 |
| no binding (tested: 1 ug/ml) | B9 |

biological target: T2, human OX40-Fc (R&D Systems cat no. …); assay: ELISA, coated OX40-Fc
Procedure: as §1

| binding result | Binder |
| --- | --- |
| no binding (tested: 1 ug/ml) | B1 |
| no binding (tested: 1 ug/ml) | B2 |
| no binding (tested: 1 ug/ml) | B3 |
| no binding (tested: 1 ug/ml) | B4 |
| no binding (tested: 1 ug/ml) | B5 |
| no binding (tested: 1 ug/ml) | B6 |
| no binding (tested: 1 ug/ml) | B7 |
| no binding (tested: 1 ug/ml) | B8 |
| no binding (tested: 1 ug/ml) | B9 |

biological target: T3, human CD137 expressed on the surface of CHO cells (human, UniProt Q07011 24-255); assay: FMAT ligand inhibition, CD137 Ligand on CHO human CD137 cells
T3 construct: Also used for the Jurkat reporter cells that express human CD137 (functional rows); also called CHO human CD137 cells; CHO huCD137
T3 sequence (Q07011 24-255 limits assumed): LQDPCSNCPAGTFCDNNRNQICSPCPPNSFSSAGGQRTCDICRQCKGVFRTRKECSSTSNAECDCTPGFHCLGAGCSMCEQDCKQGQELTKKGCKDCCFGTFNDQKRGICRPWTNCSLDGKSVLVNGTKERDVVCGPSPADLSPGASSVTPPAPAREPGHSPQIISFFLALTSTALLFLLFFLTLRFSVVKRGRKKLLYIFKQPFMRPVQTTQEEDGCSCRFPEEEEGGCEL
How it was run: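 Read-out was FMAT fluorescence (FL2 median intensity), normalised to total binding controls after subtracting non-specific binding set with excess non-Fc-tagged competitor. Inhibition by purified Humabody VH of human CD137 ligand binding to CHO human CD137 cells was reported as % control.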

| IC50 [nM] | Binder |
| --- | --- |
| 1.5 | B1 |
| 1.2 | B2 |
| 1.1 | B3 |
| 1.6 | B4 |
| 1.2 | B5 |
| 5.7 | B6 |
| 19 | B7 |
| 2 | B8 |
| 2 | B9 |

biological target: T4, human CD137-human Fc chimeric protein (Acro Biosystems cat no. 41B-H5258) (human, UniProt Q07011 24-186); assay: BLI (Octet RED384), CD137-Fc amine-coupled to AR2G sensors, 1:1 model
T4 construct: Bought protein; The Octet Protein G and Biacore experiments name no catalogue number; also called human CD137Fc recombinant protein; human CD137-Fc recombinant protein; not shown: human IgG1 Fc tag
Procedure: The kinetics of monovalent and bispecific Humabody VH were determined on a ForteBio Octet RED 384 instrument. To study the interaction with the antigens, CD137-Fc tag protein (Acro Biosystems cat no. 41B-H5258) or PSMA-his (R&D Systems cat no. 4234-ZN) was immobilised onto AR2G biosensors (ForteBio cat no. 18-5082) by amine coupling. Monovalent VH and bispecific molecules were serially diluted (typically 1:2 dilution series starting between 12-25 nM, at the highest concentration) in kinetics buffer (0.1% BSA, 0.02% Tween, 1×PBS) and binding to the immobilised proteins was studied during the association and dissociation phases. PSMA binding was measured using 180 seconds association and 600 seconds dissociation phases. CD137 binding was measured 180 seconds association and 600 seconds dissociation phases. Reference subtracted data were fitted to a 1:1 binding model using the ForteBio Octet Data Analysis software.

| Kd [nM] | koff [s⁻¹] | kon [M⁻¹ s⁻¹] | Binder |
| --- | --- | --- | --- |
| 0.52 | 0.00036 | 710000 | B3 |
| 6.7 | 0.0052 | 770000 | B6 |

Reference: patent US20200362047A1 (CRESCENDO BIOLOGICS, published 2020)
